*1 amine or outer side, *2 acyl side, *3 side chain or, on linkers, in order; H or OH if unused. Where a SMILES comes first, the peptide text is derived from it. Bridges are numbered along the chain shown (N, C = ends). Where no end group is shown, it is not given here. Side-chain parts run from the residue outwards. [ ]: non-standard residue; d: D form. S6H = (2S)-2-aminooct-7-enoic acid, C=CCCCC[C@H](N[*:1])C(=O)[*:2]; OXA12 = PEG spacer connecting glycine to cholesterol; dGly(6-heptenyl) = C=CCCCCC[C@@H](N)C(=O)O; Ala(5-hexenyl) = C=CCCCCC[C@H](N)C(=O)O; dNle(6-vinyl) = C=CCCCC[C@@H](N)C(=O)O; Gla = N[C@@H](CC(C(=O)O)C(=O)O)C(=O)O; R5H = not defined here; MA = not defined here; Aib = CC(C)(N)C(=O)O
What was measured:
[1] = biological target: T1, ABCA1 cholesterol transporter protein (Mus musculus, UniProt P41233); assay: ABCA1-dependent cholesterol efflux from RAW mouse macrophage cells (in vitro RCT assay); format: cell-based; settings: for EC50: read-out: EC50 in the cholesterol efflux assay (RCT in vitro assay)
T1 construct: endogenous in cells
T1 sequence (P41233 whole entry): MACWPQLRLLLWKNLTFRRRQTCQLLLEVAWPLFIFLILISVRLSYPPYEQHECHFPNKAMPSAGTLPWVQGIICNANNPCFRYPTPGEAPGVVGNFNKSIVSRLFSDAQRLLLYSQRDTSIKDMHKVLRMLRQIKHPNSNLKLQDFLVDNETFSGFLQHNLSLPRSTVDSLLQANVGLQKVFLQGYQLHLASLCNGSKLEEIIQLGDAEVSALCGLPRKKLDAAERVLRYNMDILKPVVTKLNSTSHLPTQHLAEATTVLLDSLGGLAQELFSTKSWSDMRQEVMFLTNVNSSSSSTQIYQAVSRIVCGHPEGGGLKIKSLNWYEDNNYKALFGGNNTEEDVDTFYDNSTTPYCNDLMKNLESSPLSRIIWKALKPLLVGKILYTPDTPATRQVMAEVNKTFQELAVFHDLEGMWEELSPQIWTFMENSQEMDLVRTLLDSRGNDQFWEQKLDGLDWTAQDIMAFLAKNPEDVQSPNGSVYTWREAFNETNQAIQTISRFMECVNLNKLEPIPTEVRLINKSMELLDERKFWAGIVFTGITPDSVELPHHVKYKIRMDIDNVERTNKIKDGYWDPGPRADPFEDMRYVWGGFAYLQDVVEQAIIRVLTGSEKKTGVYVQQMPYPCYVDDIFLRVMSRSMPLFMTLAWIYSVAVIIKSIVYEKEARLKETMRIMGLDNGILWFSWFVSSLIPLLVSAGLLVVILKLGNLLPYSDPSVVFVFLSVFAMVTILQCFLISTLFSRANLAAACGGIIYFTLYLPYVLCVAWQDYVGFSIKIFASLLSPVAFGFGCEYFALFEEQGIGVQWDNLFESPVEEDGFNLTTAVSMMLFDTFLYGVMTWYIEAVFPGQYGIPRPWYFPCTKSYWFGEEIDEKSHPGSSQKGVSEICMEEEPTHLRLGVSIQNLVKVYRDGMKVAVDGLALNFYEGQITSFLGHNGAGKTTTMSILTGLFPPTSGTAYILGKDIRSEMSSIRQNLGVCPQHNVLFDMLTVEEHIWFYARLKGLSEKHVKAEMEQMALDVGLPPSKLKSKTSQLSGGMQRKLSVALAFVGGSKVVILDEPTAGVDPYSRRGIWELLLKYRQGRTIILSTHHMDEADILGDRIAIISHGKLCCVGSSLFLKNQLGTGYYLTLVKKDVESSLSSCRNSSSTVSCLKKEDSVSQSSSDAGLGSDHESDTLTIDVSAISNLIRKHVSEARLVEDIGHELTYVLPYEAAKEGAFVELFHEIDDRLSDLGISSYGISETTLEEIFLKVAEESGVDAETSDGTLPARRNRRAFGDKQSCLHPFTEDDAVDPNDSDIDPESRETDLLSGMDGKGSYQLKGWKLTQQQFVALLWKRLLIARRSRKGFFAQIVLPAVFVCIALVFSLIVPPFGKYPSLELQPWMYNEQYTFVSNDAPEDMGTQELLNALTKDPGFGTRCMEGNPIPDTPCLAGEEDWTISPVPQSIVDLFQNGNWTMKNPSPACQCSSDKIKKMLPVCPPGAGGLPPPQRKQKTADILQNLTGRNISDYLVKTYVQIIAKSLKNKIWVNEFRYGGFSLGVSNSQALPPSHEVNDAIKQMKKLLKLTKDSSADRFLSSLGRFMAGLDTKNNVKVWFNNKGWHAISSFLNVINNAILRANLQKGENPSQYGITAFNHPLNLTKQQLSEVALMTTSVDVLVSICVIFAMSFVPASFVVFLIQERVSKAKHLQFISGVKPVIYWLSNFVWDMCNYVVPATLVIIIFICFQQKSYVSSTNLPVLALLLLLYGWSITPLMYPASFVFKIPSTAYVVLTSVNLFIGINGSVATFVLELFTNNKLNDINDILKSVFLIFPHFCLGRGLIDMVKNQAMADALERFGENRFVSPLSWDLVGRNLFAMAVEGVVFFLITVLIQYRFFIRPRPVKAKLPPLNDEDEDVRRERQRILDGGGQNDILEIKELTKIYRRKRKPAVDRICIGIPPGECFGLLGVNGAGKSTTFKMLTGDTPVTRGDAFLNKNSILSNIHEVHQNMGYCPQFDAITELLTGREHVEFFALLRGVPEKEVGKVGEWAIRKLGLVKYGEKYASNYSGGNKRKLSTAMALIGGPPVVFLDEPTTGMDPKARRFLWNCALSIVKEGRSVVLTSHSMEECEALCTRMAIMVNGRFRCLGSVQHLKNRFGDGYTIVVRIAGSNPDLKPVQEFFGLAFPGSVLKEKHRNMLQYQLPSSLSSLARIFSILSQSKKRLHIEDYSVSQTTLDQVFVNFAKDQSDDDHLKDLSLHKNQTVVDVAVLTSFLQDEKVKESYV
From the text: Peptides of the present invention were designed based on amphipathic properties and their abilities to solubilize phospholipids and promote cholesterol efflux. The most direct functional measurement of efficacy for the ApoA-1 peptide mimetic is its capacity to improve the efflux of cholesterol from the cell. The RAW and J774 cell lines are reliable mouse macrophage cell lines frequently used in the art for this purpose. […] The RAW cell line is preferred and recited in the description below.
In the present assay, the RAW cells are plated at 1.5×10^5 cells/200 μl/well/48-well plate in DMEM complete medium (with 10% FBS from INVITROGEN and 1% penicillin-streptomycin-glutamine from GIBCO) and ^3H-cholesterol at 5 μCi/ml. After 24 hours incubation in a moist 37° C. atmosphere with 5% CO2, the spent medium is removed, the cells are washed once with serum-free DMEM (0.1% fatty acid free bovine serum albumin replaces the FBS), and fresh serum-free medium (200 μl) is added to each well. After overnight incubation in the serum-free medium to allow the cellular cholesterol pools to equilibrate, the spent medium is removed, and fresh serum-free medium is added with/without CPT-cAMP (150 μM final). Eight-point serial titrations of the peptide/s being tested are added at this time (duplicate titrations in plain medium without cAMP and duplicate titrations in medium containing cAMP).
After 24 hours incubation in the various conditions, the medium is harvested from each well and 50 μl aliquots are counted. The cells are then lysed by adding 500 μl of HEPES/Triton lysis buffer to each well. The lysis is facilitated by freezing and thawing once. After thawing, the lysates are mixed well and 50 μl aliquots are counted.
The percent efflux of each peptide in each medium condition (±cAMP) is calculated by dividing the total counts in the medium by the sum of the total counts in the medium and lysate. The percent efflux seen with plain medium is subtracted from the percent efflux seen with the cAMP-stimulated efflux to yield the reported ABCA1-stimulated values. EC50 values are determined using PRISM software (Table 2).

[2] = biological target: ATP-binding cassette transporter A1 (ABCA1) (mouse, UniProt P41233 1-2261); assay: cell-based or functional assay
Sequence of ATP-binding cassette transporter A1 (ABCA1) (P41233 whole entry): as above

6 (Ac-PVLDEFREKLNE[Aib]LEALKQKLK; not fully specified (C-terminus)) [compound 6]
ABCA1-DEPENDENT CHOLESTEROL EFFLUX, % at one concentration ([1]; AT 100 µM / @ 100): 6% AT 100 UM

7 (Ac-PVLDEFREKLNE[Aib]LE[Aib]LKQKLK; not fully specified (C-terminus)) [compound 7]
ABCA1-DEPENDENT CHOLESTEROL EFFLUX, % at one concentration ([1]; AT 150 µM): 5% AT 150 UM

11 (Ac-PVLDEFREKLNE[R5H]LEA[R5H]KQKLK; staple 13-17; reading uncertain) [compound 11]
ABCA1-DEPENDENT CHOLESTEROL EFFLUX, % at one concentration ([1]; AT 30 µM / @ 30): <2% AT 30 UM

22 (Ac-PVLDEFREKLNEELEALKQXLK; not fully specified (residue 20, C-terminus); printed as PVLDEFREKLNEELEALKQR7HLK) [compound 22]
ABCA1-DEPENDENT CHOLESTEROL EFFLUX, % at one concentration ([1]; AT 100 µM / @ 100): 1.4% @ 100

CCCCCCCCCCCCC(NC(=O)[C@H](CCC(=O)O)NC(=O)[C@H](CC(=O)O)NC(=O)[C@H](CC(C)C)NC(=O)[C@@H](NC(=O)[C@@H]1CCCN1C(C)=O)C(C)C)C(=O)N[C@@H](CCCNC(=N)N)C(=O)N[C@@H](CCC(=O)O)C(=O)N[C@@H](CCCCN)C(=O)N[C@@H](CC(C)C)C(=O)N[C@@H](CC(N)=O)C(=O)N[C@@H](CCC(=O)O)C(=O)N[C@@H](CCC(=O)O)C(=O)N[C@@H](CC(C)C)C(=O)N[C@@H](CCC(=O)O)C(=O)N[C@@H](C)C(=O)N[C@@H](CC(C)C)C(=O)N[C@@H](CCCCN)C(=O)N[C@@H](CCC(N)=O)C(=O)N[C@@H](CCCCN)C(=O)N[C@@H](CC(C)C)C(=O)N[C@@H](CCCCN)C(N)=O (single isomer, unassigned) [SEQ ID NO 37, PVLDE-(RS)12H3-REKLNEELEALKQKLK]
EC50 [1]: 100 to 400 nM

CCCCCCCCCCCCC(NC(=O)[C@H](CCC(=O)O)NC(=O)[C@H](CC(N)=O)NC(=O)[C@H](CC(C)C)NC(=O)[C@H](CCCCN)NC(=O)[C@H](CCC(=O)O)NC(=O)[C@H](CCCNC(=N)N)NC(=O)[C@H](Cc1ccccc1)NC(=O)[C@H](CCC(=O)O)NC(=O)[C@H](CC(=O)O)NC(=O)[C@H](CC(C)C)NC(=O)[C@@H](NC(=O)[C@@H]1CCCN1C(C)=O)C(C)C)C(=O)N[C@@H](CC(C)C)C(=O)N[C@@H](CCC(=O)O)C(=O)N[C@@H](C)C(=O)N[C@@H](CC(C)C)C(=O)N[C@@H](CCCCN)C(=O)N[C@@H](CCC(N)=O)C(=O)N[C@@H](CCCCN)C(=O)N[C@@H](CC(C)C)C(=O)N[C@@H](CCCCN)C(N)=O (single isomer, unassigned) [SEQ ID NO 38, PVLDEFREKLNE-(RS)12H3-LEALKQKLK]
EC50 [1]: 200 to 400 nM

CC(=O)N1CCC[C@H]1C(=O)N[C@H](C(=O)N[C@@H](CC(C)C)C(=O)N[C@@H](CC(=O)O)C(=O)N[C@@H](CCC(=O)O)C(=O)N[C@@H](Cc1ccccc1)C(=O)N[C@@H](CCCNC(=N)N)C(=O)N[C@@H](CCC(=O)O)C(=O)N[C@@H](CCCCN)C(=O)N[C@@H](CC(C)C)C(=O)N[C@@H](CC(N)=O)C(=O)N[C@@H](CCC(=O)O)C(=O)NC(C)(C)C(=O)N[C@@H](CC(C)C)C(=O)N[C@@H](CC(C(=O)O)C(=O)O)C(=O)N[C@@H](C)C(=O)N[C@@H](CC(C)C)C(=O)N[C@@H](CCCCN)C(=O)N[C@@H](CCC(N)=O)C(=O)N[C@@H](CCCCN)C(=O)N[C@@H](CC(C)C)C(=O)N[C@@H](CCCCN)C(N)=O)C(C)C [SEQ ID NO 4, PVLDEFREKLNEAIBLGLAALKQKLK] (Ac-PVLDEFREKLNE[Aib]L[Gla]ALKQKLK-NH2; C-terminus assumed)
EC50 [1]: 41000 nM

C=CCCCCC[C@H](NC(=O)[C@H](CCC(=O)O)NC(=O)[C@H](CC(N)=O)NC(=O)[C@H](CC(C)C)NC(=O)[C@H](CCCCN)NC(=O)[C@H](CCC(=O)O)NC(=O)[C@H](CCCN=C(N)N)NC(=O)[C@@H](CCCCC=C)NC(=O)[C@H](CCC(=O)O)NC(=O)[C@H](CC(=O)O)NC(=O)[C@H](CC(C)C)NC(=O)[C@@H](NC(=O)[C@@H]1CCCN1C(C)=O)C(C)C)C(=O)N[C@@H](CC(C)C)C(=O)N[C@@H](CCC(=O)O)C(=O)N[C@@H](C)C(=O)N[C@@H](CC(C)C)C(=O)N[C@@H](CCCCN)C(=O)N[C@@H](CCC(N)=O)C(=O)N[C@@H](CCCCN)C(=O)N[C@@H](CC(C)C)C(=O)N[C@@H](CCCCN)C(N)=O [SEQ ID NO 13, PVLDER6HREKLNES7HLEALKQKLK] (Ac-PVLDE[dNle(6-vinyl)]REKLNE[Ala(5-hexenyl)]LEALKQKLK-NH2)
EC50 [1]: 400 nM

Ac-PVLDE[Ala(5-hexenyl)]REKLNE[Ala(5-hexenyl)]LEALKQKLKGC([MA-OXA12-Gly-cholesterol]) (not fully specified; reading uncertain) [CONS[S7H^6,13]-GC-OXA12-CHOLESTEROL]
ABCA1-dependent cholesterol efflux, % at 30 uM [2]: 1.9%

Ac-[dP][dV][dL][dD][dE][dGly(6-heptenyl)][dR][dE][dK][dL][dN][dE][dGly(6-heptenyl)][dL][dE][dA][dL][dK][dQ][dK][dL][dK] [D-CONS[R7H^6,13]]
ABCA1-dependent cholesterol efflux, % at 100 uM [2]: 17.7%

Ac-PVLDEFRE[R5H]LNE[R5H]LEALKQKLK (reading uncertain) [R5H [K9-E13]R5H OPEN]
ABCA1-dependent cholesterol efflux EC50 [2]: 46000 nM

Ac-[dP][dV][dL][dD][dE][dGly(6-heptenyl)][dR][dE][dK][dL][dN][dE][dE][dL][dE][dA][dL][dK][dQ][dK][dL][dK] (not fully specified (C-terminus)) [D-CONS[R7H^6]]
ABCA1-dependent cholesterol efflux, % at 100 uM [2]: 19%

Ac-P[Ala(5-hexenyl)]LDE[Ala(5-hexenyl)]REKLNE[Ala(5-hexenyl)]LEALKQ[Ala(5-hexenyl)]LK [CONS[S7H^2,6,13,20]]
ABCA1-dependent cholesterol efflux EC50 [2]: 2000 nM

Ac-PVLDEFREKLNE[Ala(5-hexenyl)]LEALKQKLKPVLDEFREKLNE[Ala(5-hexenyl)]LEALKQKLK [CONS[S7H^13]2]
ABCA1-dependent cholesterol efflux EC50 [2]: 41000 nM

Ac-P[Ala(5-hexenyl)]LDE[Ala(5-hexenyl)]REKLNE[Ala(5-hexenyl)]L[Gla]ALKQ[Ala(5-hexenyl)]LK [CONS[S7H^2,6,13,20, GLA^15]]
ABCA1-dependent cholesterol efflux EC50 [2]: 2400 nM

Ac-PVLDE[Ala(5-hexenyl)]REKLNE[Ala(5-hexenyl)]LEALKQKLKGC(branched mPEG 40 kDa) [CONS[S7H^6,13]-GC-PEG40]
ABCA1-dependent cholesterol efflux, % at 100 uM [2]: 1%

B1: (CONS[S7H^6,13]-GC)2 (peptide)
peptide: Ac-PVLDE[Ala(5-hexenyl)]REKLNE[Ala(5-hexenyl)]LEALKQKLKGCPVLDE[Ala(5-hexenyl)]REKLNE[Ala(5-hexenyl)]LEALKQKLKGC
modifications: disulfide 24-48; also: homodimer of two 24-residue chains listed as one 48-residue chain, second N-terminal acetyl not placed
ABCA1-dependent cholesterol efflux EC50 [2]: 1500 nM

PXLDEXREKLNEXLXALKQKLK (not fully specified; N-terminal acetyl (Ac-Pro); S7H at 2, 6 and 13; Gla at 15) [CONS[GLA^15, S7H^2,6,13]]
ABCA1-dependent cholesterol efflux EC50 [2]: 600 nM

Ac-[dP][dV][dL][dD][dE][S6H][dR][dE][dK][dL][dN][dE][dGly(6-heptenyl)][dL][dE][dA][dL][dK][dQ][dK][dL][dK] (not fully specified (C-terminus)) [D-CONS[S6H^6, R7H^13]]
ABCA1-dependent cholesterol efflux EC50 [2]: 1200 nM

Ac-[dP][dV][dL][dD][dE][dF][dR][dE][dK][dL][dN][dE][dGly(6-heptenyl)][dL][dE][dA][dL][dK][dQ][dK][dL][dK] [D-CONS[R7H^13]]
ABCA1-dependent cholesterol efflux EC50 [2]: 1100 nM

Ac-[dP][dV][dL][dD][dE][Ala(5-hexenyl)][dR][dE][dK][dL][dN][dE][Ala(5-hexenyl)][dL][dE][dA][dL][dK][dQ][dK][dL][dK] (not fully specified (C-terminus)) [D-CONS[S7H^6,13]]
ABCA1-dependent cholesterol efflux EC50 [2]: 3000 nM

Ac-PVLDEFREKLNE[R5H]LEA[R5H]KQKLK (reading uncertain) [R5H [E13-L17]R5H OPEN]
ABCA1-dependent cholesterol efflux, % at 30 uM [2]: < 3%

From patent US20110046056A1, “APOA-1 PEPTIDE MIMETICS” (priority 2007, published 2011)
